These results are taken from patent publication US20230295310A1 (ABCELLERA BIOLOGICS, published 2023).

Test [1] deals with T1, human CD3 expressed on cells (human, UniProt P07766 23-207; P04234 22-171; P09693 23-182).
T1 construct: whole, on cells; CD3 complex on Jurkat cells and on human primary T cells
Description: flow cytometry, 25 nM, Jurkat cells (human primary T cells in c4 also <10). The method, then:
Purified antibodies were confirmed to bind CD3 expressed on cells using the CytoFLEX S or LX flow cytometers (Beckman Coulter). Antibodies were diluted to 25 nM in FACS buffer (PBS+2% FBS) and were incubated with CD3-expressing cells for 30 minutes at 4° C. […] The median fluorescence intensity of the binding signal for each antibody was normalized to the isotype control to obtain a fold over isotype value. An antibody with a fold over isotype (FOI) of ≥10 was considered to be positive for binding.

The target in test [2] is T2, cynomolgus monkey CD3 expressed on primary T cells (cynomolgus monkey, UniProt Q95LI5 22-198; Q95LI8 22-171; Q95LI7 23-181).
T2 construct: whole, on cells; CD3 complex on purified cynomolgus monkey T cells; also called cyno CD3
T2 sequence (Q95LI5 22-198, chain 1 of 3): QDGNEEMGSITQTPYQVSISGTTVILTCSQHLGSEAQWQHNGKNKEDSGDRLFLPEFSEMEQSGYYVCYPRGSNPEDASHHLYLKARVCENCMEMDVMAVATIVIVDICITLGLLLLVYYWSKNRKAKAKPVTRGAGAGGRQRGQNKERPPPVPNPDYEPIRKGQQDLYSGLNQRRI
T2 sequence (Q95LI8 22-171, chain 2 of 3): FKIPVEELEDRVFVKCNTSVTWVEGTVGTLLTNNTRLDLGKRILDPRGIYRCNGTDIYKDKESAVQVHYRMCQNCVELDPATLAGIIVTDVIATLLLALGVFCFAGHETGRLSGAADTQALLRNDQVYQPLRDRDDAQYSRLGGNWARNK
T2 sequence (Q95LI7 23-181, chain 3 of 3): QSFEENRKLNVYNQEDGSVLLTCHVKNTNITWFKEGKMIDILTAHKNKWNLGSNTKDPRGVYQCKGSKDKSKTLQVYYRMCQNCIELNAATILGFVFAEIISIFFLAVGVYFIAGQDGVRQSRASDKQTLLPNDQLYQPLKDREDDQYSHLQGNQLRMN
Description: flow cytometry, 25 nM, cyno primary T cells. Put shortly:
(§1)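 25 nM Ab in FACS buffer (PBS+2% FBS), 30 min at 4° C on CD3+ cells; flow cytometry MFI normalized to isotype = FOI; cutoff ≥10 for positive.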
(Flow cytometry measures light scatter and fluorescence of single cells or particles in a stream.)

In test [3] the target is T1, human CD3 expressed on cells. The experiment in a line: flow cytometry, 25 nM. Put shortly:
as §1

A further test addresses T3, cynomolgus monkey CD3 (cynomolgus monkey, UniProt Q95LI5 22-198; Q95LI8 22-171; Q95LI7 23-181).
T3 construct: whole, on cells; CD3 on purified cynomolgus monkey CD3 pan T cells; also called cyno CD3; CD3 on cyno primary T cells
The experiment in a line: flow cytometry, cyno primary T cells. In short, it runs like this: as §1

Numbering of substitutions follows the chain as printed.

T1 sequence (P07766 23-207, chain 1 of 3): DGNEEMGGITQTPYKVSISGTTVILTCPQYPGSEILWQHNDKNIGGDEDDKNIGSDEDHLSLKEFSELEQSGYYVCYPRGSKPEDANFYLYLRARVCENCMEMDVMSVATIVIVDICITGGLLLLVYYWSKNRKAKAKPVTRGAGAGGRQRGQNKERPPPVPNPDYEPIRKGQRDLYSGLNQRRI
T1 sequence (P04234 22-171, chain 2 of 3): as the sequence (Q95LI8 22-171, chain 2 of 3) above, with V5I, K15N, V20I, T32S, N33D, N34I, A64T, N74S, L83V, R141H counted along it
T1 sequence (P09693 23-182, chain 3 of 3): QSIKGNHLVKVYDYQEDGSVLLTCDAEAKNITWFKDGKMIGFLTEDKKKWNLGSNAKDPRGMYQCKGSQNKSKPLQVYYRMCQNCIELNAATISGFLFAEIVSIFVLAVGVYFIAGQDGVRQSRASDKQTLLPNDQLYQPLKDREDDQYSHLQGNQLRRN
T3 sequence (Q95LI5 22-198, chain 1 of 3): as the sequence (Q95LI5 22-198, chain 1 of 3) above
T3 sequence (Q95LI8 22-171, chain 2 of 3): as the sequence (Q95LI8 22-171, chain 2 of 3) above
T3 sequence (Q95LI7 23-181, chain 3 of 3): as the sequence (Q95LI7 23-181, chain 3 of 3) above

B1: mAb 105 (antibody, V domains shown)
VH: QVQLQESGPGLVKPSATLSLTCTVSGGSISTYYWSWIRQSPGKGLEWIGYISYSVNTNPSLKSRVTISVDKSKNQLSLNLRSATGADTAVYYCARGGLYGGNAGRFDLWGQGTLVTVSS
VL: EIVLTQSPGTLSLSPGERATLSCRASQSVINNYVAWYQQKPGQAPSLIITGVSRRATGIPDRFIGSGSGTDFILIISRLEPEDFAVYCCQQYGNSPWTFGQGTRVEIK
As for B1, the binding result in test [1] and in test [2] was “no binding (tested: FOI >=10 = positive)” in each case. Further, the “Human primary T Cell Binding (FOI)” value in test [3] turned out to be 0.842 FOI.

B2: mAb 103 (antibody, V domains shown)
VH: QVQLVQSGAEVMKPGASVKVSCKASGYTFTDFYIHWVRQAPGQGLEWMGWINPKSGNTRFAQKFQGRVTMTRDTSIATSYMELSRLRSDDTAVFYCARMGDLLALDYWGQGTLVTVSS
VL: EIVLTQSPATLSLSPGERATLSCRASQSVSSYLAWYQQKPGQAPRLLIYDASNRATGIPARFSGSGSGTDFTLTISSLEPEDFAVYYCQQRSNWYTFGQGTKLEIK
B2: the binding result in test [1] and in test [2] was “no binding (tested: FOI >=10 = positive)” in each case. The “Human primary T Cell Binding (FOI)” value in test [3] is 0.526 FOI.

B3: mAb 104 (antibody, V domains shown)
VH: B2 VH with M12K, K63R, A77T
VL: not shown
For B3, the binding result in test [1] and in test [2] was “no binding (tested: FOI >=10 = positive)” in each case. Besides, in test [3], the “Human primary T Cell Binding (FOI)” value came to 0.778 FOI.

B4: mAb 80 (antibody, V domains shown)
VH: QVQLVQSGAEVKKPGASVKVSCKASGYTFAGYYLHWVRQAPGQGLEWMGWINPNSGRTESAQKFQGRVTLTRDTSITTAYMALSRLRSDDTAIYYCTRLEQLVFDYWGQGTLVTVSS
VL: EIVLTQSPDFQSVTPKEKVTITCRASQSIGSSLHWYQQKPDQSPKLLIKYASQSFSGVPSRFSGSGSGTDFTLTINSLEAEDAATYYCHQSSSLPTFGQGTKVEIK
On to B4, for which the binding result in test [1] and in test [2] was “no binding (tested: FOI >=10 = positive)” in each case. Moreover, in test [3], the “Human primary T Cell Binding (FOI)” value turned out to be 0.905 FOI.

B5: mAb 89 (antibody, V domains shown)
VH: B4 VH
VL: DIQMTQSPSSLSASVGDRVTITCRASQGISNYLAWFQQKPGKAPKSLIYAASSLQSGVPSKFSGSGSGTDFTLTISSLQPEDFATYYCQQYNSYPITFGQGTRLEIK
On to B5, for which the binding result in test [1] and in test [2] was “no binding (tested: FOI >=10 = positive)” throughout. Also, the “Human primary T Cell Binding (FOI)” value in test [3] is 0.594 FOI.

B6: mAb 64 (antibody, V domains shown)
VH: QVQLMPSGAEVKEPGASVKVSCKASGYTFTGYYMHWVRQAPGQGLEWMGWINPNSGRTSYAKNFQGRVTMTRDTSISTAYMELSRLRSDDTAVYYCARIEQLVFDYWGQGTLVTVSS
VL: not shown
Regarding B6, the binding result in test [1] and in test [2] was “no binding (tested: FOI >=10 = positive)” each time. For the same molecule, the “Human primary T Cell Binding (FOI)” value in test [3] came to 0.816 FOI.

B7: mAb 75 (antibody, V domains shown)
VH: QVQLVQSGAEVKKPGASVRVSCKASGYTFTGNYIHWVRLAPGQGLEWMGWINPKSGRTQFVQKFQGRVTMTRDTSITTVYMELSRLRSDDTAVYYCARLGDLLNFDYWGQGTLVTVSS
VL: not shown
For B7, the binding result in test [1] and in test [2] was “no binding (tested: FOI >=10 = positive)” throughout. For the same molecule, in test [3], the “Human primary T Cell Binding (FOI)” value turned out to be 0.694 FOI.

B8: mAb 63 (antibody, V domains shown)
VH: QVQLVQSGAEVRKPGASVKVSCKASGYTFTGNHMHWVRQAPGQGLEWMGWINPKSGRTNFAQNFQGRVTMTRDTSISTAFMELSRLRSDDTAVYYCARMGDLLLFDFWGQGTLVTVSS
VL: not shown
Turning to B8, the binding result in test [1] and in test [2] was “no binding (tested: FOI >=10 = positive)” throughout. Moreover, the “Human primary T Cell Binding (FOI)” value in test [3] was 0.842 FOI.

B9: mAb 87 (antibody, V domains shown)
VH: QVQLVQSGAEMKKPGASVKVSCKASGYTFTDYYLHWVRRAPGHGLEWMGWIYPKSGRRNYAQHFQGRVTMTRDTSINTAYMELSSLRSDDSAVYFCVRLEQLVFDYWGQGTLVTVSS
VL: not shown
With B9, the binding result in test [1] and in test [2] was “no binding (tested: FOI >=10 = positive)” each time. The “Human primary T Cell Binding (FOI)” value in test [3] was determined as 0.715 FOI.

B10: mAb 321 (antibody, V domains shown)
VH: QVQLVESGGGVVQPGRSLRLSCVASGFTFRSFGMHWVRQAPGKGLEWVVVISNDGSHKYYVESVKGRFTISRDNSKNTLYLQMNSLRPEDTAVYYCARRDYYGSGMDVWGKGTTVTVSS
VL: SYELTQPPSVSVSPGQTARITCSGDALPKKYAYWYQQKSGQAPVLVIYEDRKRPSGIPERFSGSSSGTMATLTISGAQVEDEADYYCYSTDSSGNHAVFGGGTQLTAL
notes: VH and VL only
With B10, in the test with cynomolgus monkey CD3, the binding result is recorded as “no binding (tested: FOI ≥10 = positive; 25 nM)”.

B11: mAb 322 (antibody, V domains shown)
VH: B10 VH with F32Y, P88A
VL: B10 VL
notes: VH and VL only
For the molecule B11, the binding result with cynomolgus monkey CD3 is recorded as “no binding (tested: FOI ≥10 = positive; 25 nM)”.

B12: mAb 76 (antibody, V domains shown)
VH: QVHLVQSGAEVKKPGASVKVSCKASGHTFTGFYVHWARQAPGQGLEWMGWIYSNSGRTSYSQKFQGRVAMTRDTSISTIYMDLSRLRSDDTAVYYCARLEQLVFDFWGQGTLVTVSS
VL: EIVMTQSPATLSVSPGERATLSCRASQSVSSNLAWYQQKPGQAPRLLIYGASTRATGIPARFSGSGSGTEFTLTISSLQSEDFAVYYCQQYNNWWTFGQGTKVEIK
Turning to B12, the binding result in test [1] and in test [2] was “no binding (tested: FOI >=10 = positive)” throughout. Moreover, the “Human primary T Cell Binding (FOI)” value in test [3] stood at 0.921 FOI.

B13: mAb 82 (antibody, V domains shown)
VH: B12 VH with F32Y
VL: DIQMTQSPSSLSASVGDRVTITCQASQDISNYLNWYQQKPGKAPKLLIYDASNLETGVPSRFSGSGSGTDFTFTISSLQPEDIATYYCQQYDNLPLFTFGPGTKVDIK
In the case of B13, the binding result in test [1] and in test [2] was “no binding (tested: FOI >=10 = positive)” in each case. Moreover, the “Human primary T Cell Binding (FOI)” value in test [3] worked out at 0.954 FOI.

B14: mAb 84 (antibody, V domains shown)
VH: B12 VH with T28S, F32Y, S61A, A69T, I79T, D82E, E100D, F106Y
VL: not shown
On to B14, for which the binding result in test [1] and in test [2] was “no binding (tested: FOI >=10 = positive)” each time. Besides, the “Human primary T Cell Binding (FOI)” value in test [3] is 0.805 FOI.

B15: mAb 88 (antibody, V domains shown)
VH: B12 VH with F32Y, S77N
VL: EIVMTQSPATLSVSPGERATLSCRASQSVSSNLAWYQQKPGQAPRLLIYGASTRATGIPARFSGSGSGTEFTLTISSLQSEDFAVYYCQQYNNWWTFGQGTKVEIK
For the molecule B15, the binding result in test [1] and in test [2] was “no binding (tested: FOI >=10 = positive)” throughout. For the same molecule, the “Human primary T Cell Binding (FOI)” value in test [3] is 0.885 FOI.

B16: mAb 48 (antibody, V domains shown)
VH: QVQLVQSGAEVKKPGASVKVSCKASGYTFTGYYIHWVRQAPGQGLEWMGWINPKSGNRNYAQKFQGRVTMTRDTSIDTAYMELTRLRSDDTAVYYCARIEQLVFDYWGQGTLVTVSS
VL: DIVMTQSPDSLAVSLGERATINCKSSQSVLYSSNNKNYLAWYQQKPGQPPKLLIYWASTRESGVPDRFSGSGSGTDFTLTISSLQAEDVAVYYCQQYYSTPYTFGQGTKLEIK
As to B16, the binding result in test [1] and in test [2] was “no binding (tested: FOI >=10 = positive)” each time. Also, in test [3], the “Human primary T Cell Binding (FOI)” value was determined as 1.3 FOI.

B17: mAb 91 (antibody, V domains shown)
VH: B16 VH with R58T, N59V, K63R, D77S, E82D, T84S, R87K, I99L, T111A
VL: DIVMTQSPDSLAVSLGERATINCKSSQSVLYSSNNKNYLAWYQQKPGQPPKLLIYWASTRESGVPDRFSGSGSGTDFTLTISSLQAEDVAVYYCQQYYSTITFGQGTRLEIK
As for B17, the binding result in test [1] and in test [2] was “no binding (tested: FOI >=10 = positive)” throughout. Also, the “Human primary T Cell Binding (FOI)” value in test [3] came to 0.746 FOI.

B18: mAb 45 (antibody, V domains shown)
VH: QAQLVQSGSELKKPGASVKVSCKASGYTFTKHSMNWVRQAPGQGLEWMGWINTNTGNPMYGQGFTGRFVFSLDTSMTTTYLQISSLKAEDTAIYYCAREGDYDLWRGFFNFDYWGQGTLVTVSS
VL: DIQMTQSPSSLSASVGDRVTITCRASQGIRNDLGWYQQKPGKAPKRLIYAASSLQSGVPSRFSGSGSGAEFTLTISSLQPEDFATYYCLQHNSYPRTFGQGTKVEIK
As to B18, the binding result in test [1] and in test [2] was “no binding (tested: FOI >=10 = positive)” throughout. Besides, in test [3], the “Human primary T Cell Binding (FOI)” value was determined as 0.891 FOI.
